Positions count from the first letter of the chain named. In names and notes the source's numbering stands.
Assays:
Biotin-FcγRIIB (human) = Biotin-FcγRIIB (human) (UniProt P31994); assay: NGS of 3T3 display library Cmix flow-sorted for FcγRIIB binding
[1] = biological target: T1, Biotin-FcγRIIB (human FcγRIIB, Sino Biological) (human, UniProt P31994 43-217, limits assumed, biotin-labeled); assay: NGS after FACS sort of 3T3-displayed Library4 for biotin-FcγRIIB binding
T1 construct: Used at 1 µg/ml with Streptavidin-APC for flow cytometry and sorting; also called CD32b
T1 sequence (looked up): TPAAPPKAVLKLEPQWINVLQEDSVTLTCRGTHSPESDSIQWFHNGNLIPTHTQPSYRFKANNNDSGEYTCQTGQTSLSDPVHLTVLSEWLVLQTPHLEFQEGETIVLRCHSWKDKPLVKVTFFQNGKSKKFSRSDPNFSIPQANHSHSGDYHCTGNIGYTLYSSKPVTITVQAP

Biotin-FcγRIIB = biological target: T2, Biotin-FcγRIIB (human, UniProt P31994 43-217, limits assumed, biotin label); assay: NGS of 3T3 display library IgG2_C01 flow-sorted for FcγRIIB binding
T2 construct: Soluble labelled protein used to stain and sort the display cells; also called human FcγRIIB; CD32b
T2 sequence (looked up): T1 sequence (looked up)
Excerpt: Then flow cytometry is used for sorting the cells with high affinity to FcγRIIB for two to three rounds. […] IgG2_C01 is a combined mutation (Type I) library having at most 1 mutation in each of the four regions of P233-V240, V266-P271, S298-T299, and G327-I332; IgG2_C02 is a cell library made by combining the combined mutation (Type II) libraries of four regions of P233-V240, V266-P271, S298-T299 and G327-I332 together and transferring it into 3T3 cells.

With “human IgG2 anti-mouse CD40 surface displayed antibody, A235W/V266L/S298L/L328W” the enrichment factor, percentage after 2nd sorting/percentage after 1st sorting (Biotin-FcγRIIB (human)) was 70.1, the enrichment factor, percentage after 3rd sorting/percentage after 2nd sorting (Biotin-FcγRIIB (human)) was 4.67 and the percentage after 1st sorting (Biotin-FcγRIIB (human)) was 0%. For the same molecule, the percentage after 2nd sorting (Biotin-FcγRIIB (human)) was 0.05% and the percentage after 3rd sorting (Biotin-FcγRIIB (human)) was 0.22%.

With “human IgG2 anti-mouse CD40 surface displayed antibody, V234M/S267E/S298L/L328W” the enrichment factor, percentage after 3rd sorting/percentage after 2nd sorting (Biotin-FcγRIIB (human)) was 5.13, the percentage after 2nd sorting (Biotin-FcγRIIB (human)) was 0.1% and the percentage after 3rd sorting (Biotin-FcγRIIB (human)) was 0.53%.

“human IgG2 anti-mouse CD40 surface displayed antibody, P233F/V266L/S298L/L328W” gave an enrichment factor, percentage after 2nd sorting/percentage after 1st sorting (Biotin-FcγRIIB (human)) of 94.7, an enrichment factor, percentage after 3rd sorting/percentage after 2nd sorting (Biotin-FcγRIIB (human)) of 1.79 and a percentage after 1st sorting (Biotin-FcγRIIB (human)) of 0%. The percentage after 2nd sorting (Biotin-FcγRIIB (human)) was 0.16% and the percentage after 3rd sorting (Biotin-FcγRIIB (human)) was 0.29%.

“human IgG2 anti-mouse CD40 surface displayed antibody, V234M/S267E/S298G/I332L” showed an enrichment factor, percentage after 1st sorting/percentage before sorting (Biotin-FcγRIIB (human)) of 16.5, an enrichment factor, percentage after 2nd sorting/percentage after 1st sorting (Biotin-FcγRIIB (human)) of 64.4 and an enrichment factor, percentage after 3rd sorting/percentage after 2nd sorting (Biotin-FcγRIIB (human)) of 0.66. For the same molecule, the enrichment factor, percentage after 3rd sorting/percentage before sorting (Biotin-FcγRIIB (human)) was 695, the increased factor, mutant enrichment factor/wild-type enrichment factor (Biotin-FcγRIIB (human)) was 1850 and the percentage after 1st sorting (Biotin-FcγRIIB (human)) was 0.01%. It also gave a percentage after 2nd sorting (Biotin-FcγRIIB (human)) of 0.46%, a percentage after 3rd sorting (Biotin-FcγRIIB (human)) of 0.3% and a percentage before sorting (Biotin-FcγRIIB (human)) of 0%.

B1: human IgG2 anti-mouse CD40 surface displayed antibody, G327A (antibody, name in EU numbering)
light chain (with the P2A rest): DTVLTQSPALAVSPGERVTISCRASDSVSTLMHWYQQKPGQQPKLLIYLASHLESGVPARFSGSGSGTDFTLTIDPVEADDTATYYCQQSWNDPWTFGGGTKLELKRTVAAPSVFIFPPSDEQLKSGTASVVCLLNNFYPREAKVQWKVDNALQSGNSQESVTEQDSKDSTYSLSSTLTLSKADYEKHKVYACEVTHQGLSSPVTKSFNRGECGSGATNFSLLKQAGDVEENPG
heavy chain: EVQLVESDGGLVQPGRSLKLPCAASGFTFSDYYMAWVRQAPTKGLEWVASISYDGSSTYYRDSVKGRFTISRDNAKSTLYLQMDSLRSEDTATYYCGRHSSYFDYWGQGVMVTVSSASTKGPSVFPLAPCSRSTSESTAALGCLVKDYFPEPVTVSWNSGALTSGVHTFPAVLQSSGLYSLSSVVTVPSSNFGTQTYTCNVDHKPSNTKVDKTVERKCCVECPPCPAPPVAGPSVFLFPPKPKDTLMISRTPEVTCVVVDVSHEDPEVQFNWYVDGVEVHNAKTKPREEQFNSTFRVVSVLTVVHQDWLNGKEYKCKVSNKALPAPIEKTISKTKGQPREPQVYTLPPSREEMTKNQVSLTCLVKGFYPSDIAVEWESNGQPENNYKTTPPMLDSDGSFFLYSKLTVDKSRWQQGNVFSCSVMHEALHNHYTQKSLSLSPGKLEPPPSTVSNMATVAVLVVLGAAIVTGAVVAFVMKMRRRNTGGKGGDYALAPGSQTSDLSLPDCKVMVHDPHSLA
notes: m1 with this Fc mutation (Eu numbering); copies: 2 + 2
In the case of B1, the “Enrichment factor (percentage after sorting/percentage before sorting)” value [1] is reported as 5.05 and the “Increased factor (enrichment factor/wild-type enrichment factor)” value [1] is reported as 3.38.

B2: human IgG2 anti-mouse CD40 surface displayed antibody, G327A/A330R (antibody, name in EU numbering)
light chain (with the P2A rest): B1 light chain (with the P2A rest)
heavy chain: B1 heavy chain with A325R
notes: m1 with these Fc mutations (Eu numbering); copies: 2 + 2
In the case of B2, the “Enrichment factor (percentage after sorting/percentage before sorting)” value [1] is reported as 98.3 and the “Increased factor (enrichment factor/wild-type enrichment factor)” value [1] is reported as 65.8.

B3: human IgG2 anti-mouse CD40 surface displayed antibody, G327A/A330V (antibody, name in EU numbering)
light chain (with the P2A rest): B1 light chain (with the P2A rest)
heavy chain: B1 heavy chain with A325V
notes: as for B2
With B3 the “Enrichment factor (percentage after sorting/percentage before sorting)” value [1] was 6.98 and the “Increased factor (enrichment factor/wild-type enrichment factor)” value [1] was 4.67.

B4: human IgG2 anti-mouse CD40 surface displayed antibody, G327A/I332A (antibody, name in EU numbering)
light chain (with the P2A rest): B1 light chain (with the P2A rest)
heavy chain: B1 heavy chain with I327A
notes: as for B2
In the case of B4, the “Enrichment factor (percentage after sorting/percentage before sorting)” value [1] is reported as 29.2 and the “Increased factor (enrichment factor/wild-type enrichment factor)” value [1] is reported as 19.5.

B5: human IgG2 anti-mouse CD40 surface displayed antibody, G327A/I332C (antibody, name in EU numbering)
light chain (with the P2A rest): B1 light chain (with the P2A rest)
heavy chain: B1 heavy chain with I327C
notes: as for B2
B5 was tested, and the “Enrichment factor (percentage after sorting/percentage before sorting)” value [1] was 11.4 and the “Increased factor (enrichment factor/wild-type enrichment factor)” value [1] was 7.64.

B6: human IgG2 anti-mouse CD40 surface displayed antibody, G327A/I332E (antibody, name in EU numbering)
light chain (with the P2A rest): B1 light chain (with the P2A rest)
heavy chain: B1 heavy chain with I327E
notes: as for B2
B6 was tested, and the “Enrichment factor (percentage after sorting/percentage before sorting)” value [1] was 126 and the “Increased factor (enrichment factor/wild-type enrichment factor)” value [1] was 84.1.

B7: human IgG2 anti-mouse CD40 surface displayed antibody, L328E/I332T (antibody, name in EU numbering)
light chain (with the P2A rest): B1 light chain (with the P2A rest)
heavy chain: B1 heavy chain with A322G, L323E, I327T
notes: as for B2
B7 was tested, and the “Enrichment factor (percentage after sorting/percentage before sorting)” value [1] was 55.1 and the “Increased factor (enrichment factor/wild-type enrichment factor)” value [1] was 36.9.

B8: human IgG2 anti-mouse CD40 surface displayed antibody, L328F (antibody, name in EU numbering)
light chain (with the P2A rest): B1 light chain (with the P2A rest)
heavy chain: B1 heavy chain with A322G, L323F
notes: as for B1
In the case of B8, the “Enrichment factor (percentage after sorting/percentage before sorting)” value [1] is reported as 563 and the “Increased factor (enrichment factor/wild-type enrichment factor)” value [1] is reported as 377.

B9: human IgG2 anti-mouse CD40 surface displayed antibody, L328W (antibody, name in EU numbering)
light chain (with the P2A rest): B1 light chain (with the P2A rest)
heavy chain: B1 heavy chain with A322G, L323W
notes: m1 with this Fc mutation (Eu numbering); Not the anti-human OX40 antibody Mut_1, which carries the same Fc mutation; copies: 2 + 2
For B9, the “Enrichment factor (percentage after sorting/percentage before sorting)” value [1] was 33.2 and the “Increased factor (enrichment factor/wild-type enrichment factor)” value [1] was 22.2.

B10: human IgG2 anti-mouse CD40 surface displayed antibody, P233G/S267E (antibody)
light chain (with the P2A rest): B1 light chain (with the P2A rest)
heavy: B1 heavy chain with P229G, S262E, A322G
notes: As m1 with the Fc mutations; copies: 2 + 2
For B10, the “enrichment factor, percentage after 1st sorting/percentage before sorting” value (Biotin-FcγRIIB) was 3.31 ratio, the “enrichment factor, percentage after 2nd sorting/percentage after 1st sorting” value (Biotin-FcγRIIB) was 5.47 ratio and the “enrichment factor, percentage after 2nd sorting/percentage before sorting” value (Biotin-FcγRIIB) was 18.1 ratio. The “increased factor, mutant enrichment factor/wild-type enrichment factor” value (Biotin-FcγRIIB) was 21.3 ratio, the “percentage after 1st sorting” value (Biotin-FcγRIIB) was 0.01% and the “percentage after 2nd sorting” value (Biotin-FcγRIIB) was 0.05%.

B11: human IgG2 anti-mouse CD40 surface displayed antibody, P233G/S267E/S298G (antibody)
light chain (with the P2A rest): B1 light chain (with the P2A rest)
heavy: B1 heavy chain with P229G, S262E, S293G, A322G
notes: as for B10
B11 was tested, and the “enrichment factor, percentage after 1st sorting/percentage before sorting” value (Biotin-FcγRIIB) was 7.13 ratio, the “enrichment factor, percentage after 2nd sorting/percentage after 1st sorting” value (Biotin-FcγRIIB) was 38.5 ratio and the “enrichment factor, percentage after 2nd sorting/percentage before sorting” value (Biotin-FcγRIIB) was 274 ratio. For the same molecule, the “increased factor, mutant enrichment factor/wild-type enrichment factor” value (Biotin-FcγRIIB) was 323 ratio, the “percentage after 1st sorting” value (Biotin-FcγRIIB) was 0.01% and the “percentage after 2nd sorting” value (Biotin-FcγRIIB) was 0.2%.

B12: human IgG2 anti-mouse CD40 surface displayed antibody, S267E/A330S (antibody, name in EU numbering)
light chain (with the P2A rest): B1 light chain (with the P2A rest)
heavy chain: B1 heavy chain with S262E, A322G, A325S
notes: As m1 with the Fc mutations
For B12, the “enrichment factor, percentage after 2nd sorting/percentage after 1st sorting” value (Biotin-FcγRIIB) was 43.1 ratio, the “percentage after 1st sorting” value (Biotin-FcγRIIB) was 0% and the “percentage after 2nd sorting” value (Biotin-FcγRIIB) was 0.03%.
